In the supplement of paper PMC12764529:
± gives the half width of the 95% confidence interval.

Experiments:
[1] = folding stability dG unfold (combined trypsin and chymotrypsin); higher = more stable
How it was run: (§1)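 Digests were run with trypsin and chymotrypsin at 11 concentrations in threefold dilutions, plus a no-protease condition, on designed mini-proteins in a PA-tagged cDNA display construct. The mini-proteins were under 80 residues, had no cysteine, and were kept only when AlphaFold2 dimer inter-PAE was above 15. After sequencing, Bayesian fitting of the counts gave K50, from which unfolding free energy was derived against a sequence-predicted unfolded-state K50 and a shared folded-state K50, per protease or combined.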

[2] = folding stability dG unfold from chymotrypsin proteolysis; higher = more stable
How it was run: as §1

[3] = folding stability dG unfold from trypsin proteolysis; higher = more stable
How it was run: as §1

Sequence | folding stability dG unfold [1] [kcal/mol] | folding stability dG unfold [2] [kcal/mol] | folding stability dG unfold [3] [kcal/mol]
SAGGSIEEAKKAAEKLAKEIAEKKGWTVKSVEVEKLPDGTVRATITIKYPDGSEETIEVTIPPNTPLSAGGS [r8_175_JUSTAS] | 1.91 ± 0.14 | 0.954 ± 0.039 | 2.63 ± 0.11
SAGGSAGGKPKTYIILVIEDPENDKYLALLFDENGKLIGTAPFKSIDELLEKLPKNVKVIVLPASAGGSAGG [r6_492_TrMRF] | 4.24 ± 0.1 | 4.47 ± 0.11 | 3.6 ± 0.11
SAGEKPEKPPEVTITITSVKVERLPDGTVVVEVEAEIEVDGVTLTVRARFVYRDGKLFLEVEVRLEPLPSAG [r5_267_TrROS_Hall] | 4.59 ± 0.95 | 5.47 ± 0.24 | 3.5 ± 0.19
SAGGKVSVEVRGNGPGSYVALWLPGPGTVIAREFEDGDRFDDLPEDAEPSRVVFFGYDGVPEEFELGSAGGS [r8_487_TrMRF] | 0.449 ± 0.043 | 0.487 ± 0.071 | 0.32 ± 0.032
SAGGATFAPGQTITVTVTVTLADGSTVTVTATVRIEVRAAPAPPVTVTNADGSTRTFTSAEEARAAASAGGS [r16_580_TrROS_Hall] | 1.01 ± 0.098 | 0.211 ± 0.25 | 1.46 ± 0.033
SAGGSAETLTITLTVKPGETVTIKALFKAEDGSVYAVTATFTAEDEGTVTITVTRLPPGVKDLADLSAGGSA [r15_909_TrROS_Hall] | 4.4 ± 0.16 | 4.71 ± 0.1 | 2.83 ± 0.099
SAGGSAGGSAGGLVLTSTSFTSSNTMVVTTTTLTTNADGSLSTTSTTTTTPVPPPKPGLPSAGGSAGGSAGG [r11_728_JUSTAS] | 0.443 ± 0.077 | 0.509 ± 0.092 | 0.161 ± 0.042
SAGGSAGGSAGEMYKIKIFNKETGKELTLVFESEEEAKEALKKKFPNAKIEIEKISKEELSAGGSAGGSAGG [r11_978_TrROS_Hall] | 2.8 ± 0.23 | 3.1 ± 0.13 | 2.38 ± 0.13
SAGGGLANLSLEEIRQLLLEKFPELPVEVKVTPVDEKDGVVLVTVRPPLPDGSTVESEEELPLEPGLSAGGS [r16_564_JUSTAS] | 0.229 ± 0.074 | -1.28 ± 0.41 | 0.661 ± 0.025
SAGGSAGGSAGMDIDILTETEVTRYPDGTVVTTTTTRDSSGEVLSTTTTTTTVTPATPAASAGGSAGGSAGG [r11_452_JUSTAS] | 2.47 ± 0.069 | 2.6 ± 0.057 | 2.24 ± 0.15
SALIETAEELARELGVEAELVEIEEGEDVALLRIRLRVDGVPYYFLVRIERPGEDPRIFRVEILEVRPESAG [r14_387_TrMRF] | 4.066 ± 0.031 | 4.302 ± 0.034 | 3.67 ± 0.071
SMSVSTSTEKLPTDLYITEKEIKIEPVDPTKNVYRVTVKTTIVDKNGNVVKEEEKEEIIPLSELEKRIKSSA [r9_234_JUSTAS] | 1.54 ± 0.28 | 1.61 ± 0.1 | 1.2 ± 0.085
SAGGMITTSTLSDGTTVVTIRVPGSPEEADAVAEEVREALLAAGYRTVEVSREPVEDGWVVTITTVSSAGGS [r8_113_JUSTAS] | 3.711 ± 0.031 | 3.888 ± 0.029 | 3.28 ± 0.063
SAGGMMEIEVEIEKLEDGTYRIRIRVRLPNGEEVEKEMTFDRETGTLTITFDRPIEPDQIVEIEIEPSAGGS [r16_95_TrROS_Hall] | 4.27 ± 0.19 | 4.41 ± 0.2 | 3.94 ± 0.16
SAEEEEVVEVELEIEIEMTPEELEELIEALRKAAEELGFEIEDIEIRVERKEDGTLRVTIRVKIRLPKPSAG [r14_109_TrROS_Hall] | 4.2 ± 0.23 | 4.69 ± 0.48 | 3.68 ± 0.13
SAGGSAGGSAGGNIKVDDVHHNPNNYRQVKIDLPGGKPIKIWMSMDDPNNVKEIAKEIFSAGGSAGGSAGGS [r10_472_TrROS] | -0.22 ± 0.1 | -0.414 ± 0.18 | -0.191 ± 0.048

Sequence | folding stability dG unfold [1] [kcal/mol] | folding stability dG unfold [2] [kcal/mol] | folding stability dG unfold [3] [kcal/mol]
SAGGSAGGSAMITTYDPKTGLVYELVPDPVPGVGVERLVVRVVTVEEFPDAIVRKVEVRPESAGGSAGGSAG [r3_409_JUSTAS] | 0.67 ± 0.14 | 1.01 ± 0.074 | -0.211 ± 0.22
SAGGSAGGSAGMLPLEELLKKNPKPIKVLVKVGDTEYLVEVTPGEKKYTIKVKPLKKSKPSAGGSAGGSAGG [r11_549_TrMRF] | 1.41 ± 0.076 | 1.55 ± 0.047 | 1.08 ± 0.026
SAGGMERKTLTVNVPASVPASELLSLLEGYGDVLLVLGNGEVLHIKRDDAPGLEGLPLSDDDVLELYYSAGG [r13_399_TrMRF] | 0.802 ± 0.075 | 1.23 ± 0.059 | -0.696 ± 0.14
SAGGSAGSMSPEEVAERIRQEALARDPNWTVEVTPLPGPRPVLRLEIYRVDPNSDSVTPVSTLVVGSAGGSA [r15_682_JUSTAS] | 0.77 ± 0.086 | 0.516 ± 0.075 | 0.857 ± 0.018
SAGGSAMQQLDITKTKWDPNTGTLSVTAKDPLTGEVTTYTIPRNGPTLNFPPGAELKSVETEPPPLSAGGSA [r15_959_JUSTAS] | -0.0792 ± 0.27 | -0.368 ± 0.37 | 0.0912 ± 0.28
SMTYSYGVDVSEDPNSDKTTATITTTSSDGSSSLSPEEVAAELAAEAKAAGYTVDVELRPGSVTITVTAPSA [r9_510_JUSTAS] | 0.354 ± 0.059 | 0.108 ± 0.086 | 0.464 ± 0.018
SAGGSAGGMYTVIEEEFTFPPSNPDVVIEVEYPDLPDSYTITQSTFPEGDTYHVRVTITVPPNLSAGGSAGG [r6_482_JUSTAS] | 0.605 ± 0.076 | 0.762 ± 0.1 | 0.314 ± 0.089
SAGGSAGGSAGGAPDLSLPDVRPRVLVRNPATGKWYEFTSLEELEREIKSGRAEVLEISSAGGSAGGSAGGS [r10_520_TrMRF] | 0.573 ± 0.16 | 0.704 ± 0.11 | 0.327 ± 0.088
SAGGMIKVEVEPLEDGVLRVRVYVPHPDGPPIEIEVVFPPEVGSLEEALEKAVEVVEEFLKKHNIPLSAGGS [r8_464_TrMRF] | 2.36 ± 0.1 | 2.22 ± 0.065 | 2.25 ± 0.082
SAGGMTVERVPGSGVYTLTFPDGSTETLEIPPEENAVVYAKEGAGTVTVKLAPPDDPEALAAAAALSSAGGS [r16_623_JUSTAS] | 0.15 ± 0.066 | 0.357 ± 0.069 | -0.344 ± 0.083
SAGGSALPALAERFPDAEIEPVGDDGTSVTYRFRFPGGDYLLVTVPFLPGTTEAVVDIEWVPRDALSAGGSA [r15_547_TrMRF] | 2.35 ± 0.051 | 2.628 ± 0.012 | 1.68 ± 0.051
SGPFQFFVKIEYKGKNGKTQERELPINMPPGDFDKFIEEILDDPNLEGADDVEIDVYMAGTGRPQEIEIPSA [r9_97_TrROS] | 1.07 ± 0.092 | 1.22 ± 0.11 | 0.678 ± 0.061
SAGGETVTTESYQPLPTGPGLSFKNVVTTEEDVNNPGVKYTTTEVTAELVNPEGDESTTTTSTVTAASAGGS [r16_217_JUSTAS] | 0.112 ± 0.14 | 0.00547 ± 0.22 | 0.0281 ± 0.035
SAGGSAGGSAGGMKKPILLPGETEEDVLERIKKLPKDYKVTIEKLDDDKLLVTITSPKLGSAGGSAGGSAGG [r7_662_JUSTAS] | 0.58 ± 0.33 | -0.5 ± 0.51 | 0.877 ± 0.14
SAGGSAGGNWKVEIWPNGEQQEYTIDEIKKQLKNDIPPNYMIRVKGSGKWIPVRELLKEAGIPLSAGGSAGG [r6_937_TrROS] | 0.691 ± 0.076 | 0.793 ± 0.11 | 0.382 ± 0.077
